Source: US20080213187A1, “NOVEL CASCADE POLYMER COMPLEXES, PROCESSES FOR THEIR PREPARATION AND PHARMACEUTICAL COMPOSITIONS COMPRISING THEM” (priority 2007, published 2008)

What was measured:
[1] = Plasma kinetics after intravenous administration to rats; assay type: in vivo; settings: for Plasma levels (as % of the dose): i.v. 50 μmol total Gd/kg, ICP-AES
Experimental: Plasma Kinetics of the Compounds 2e and 4e After Intravenous Administration to Rats
The title substances from Examples 2e and 4e, and for comparison the title substance from Example 1 of EP 0 836 485, were administered intravenously to rats in a dose of 50 μmol of total gadolinium/kg of body weight. Blood samples were then taken through a catheter in the common carotid artery at various times (1, 3, 5, 10, 15, 30, 60, 90, 120, 240, 360 min, and 24 h p.i.), and the metal content was determined by atomic emission spectroscopy (ICP-AES) and converted into plasma levels using a conversion factor (0.625). The kinetic data were calculated (software: WinNonlin) from the plasma concentrations (Tab. 1, 2).

[2] = rats, cited from earlier work
[3] = rats; cited from earlier work
[4] = intravenous, 50 μmol of total gadolinium/kg, calculated with WinNonlin from plasma concentrations

Molecule | Plasma levels (as % of the dose) ([1]; 1 min p.i.) [%] | Plasma levels (as % of the dose) ([1]; 3 min p.i.) [%] | Plasma levels (as % of the dose) ([1]; 5 min p.i.) [%] | Plasma levels (as % of the dose) ([1]; 10 min p.i.) [%] | Plasma levels (as % of the dose) ([1]; 15 min p.i.) [%] | Plasma levels (as % of the dose) ([1]; 30 min p.i.) [%] | Plasma levels (as % of the dose) ([1]; 60 min p.i.) [%] | Plasma levels (as % of the dose) ([1]; 90 min p.i.) [%] | Plasma levels (as % of the dose) ([1]; 120 min p.i.) [%] | Plasma levels (as % of the dose) ([1]; 240 min p.i.) [%] | Plasma levels (as % of the dose) ([1]; 360 min p.i.) [%] | Plasma levels (as % of the dose) ([1]; 1440 min p.i.) [%] | Half-life α phase [1, 4] [min] | Half-life β phase [1, 4] [min] | Volume of distribution Vd ss [1, 4] [L/kg] | accumulation in liver tissue ([2]; 24 hours after intravenous injection) | dose eliminated ([2]; in 24 hours) | excretion behaviour [3]
CC(C(=O)NCC(=O)NCCCC[C@H](NC(=O)CNC(=O)C(C)N1CCN(CC(=O)O)CCN(CC(=O)O)CCN(CC(=O)O)CC1)C(=O)NCCCC[C@H](NC(=O)[C@H](CCCCNC(=O)CNC(=O)C(C)N1CCN(CC(=O)O)CCN(CC(=O)O)CCN(CC(=O)O)CC1)NC(=O)CNC(=O)C(C)N1CCN(CC(=O)O)CCN(CC(=O)O)CCN(CC(=O)O)CC1)C(=O)NCCN(CCNC(=O)[C@H](CCCCNC(=O)[C@H](CCCCNC(=O)CNC(=O)C(C)N1CCN(CC(=O)O)CCN(CC(=O)O)CCN(CC(=O)O)CC1)NC(=O)CNC(=O)C(C)N1CCN(CC(=O)O)CCN(CC(=O)O)CCN(CC(=O)O)CC1)NC(=O)[C@H](CCCCNC(=O)CNC(=O)C(C)N1CCN(CC(=O)O)CCN(CC(=O)O)CCN(CC(=O)O)CC1)NC(=O)CNC(=O)C(C)N1CCN(CC(=O)O)CCN(CC(=O)O)CCN(CC(=O)O)CC1)C(=O)c1cc(C(=O)N(CCNC(=O)[C@H](CCCCNC(=O)[C@H](CCCCNC(=O)CNC(=O)C(C)N2CCN(CC(=O)O)CCN(CC(=O)O)CCN(CC(=O)O)CC2)NC(=O)CNC(=O)C(C)N2CCN(CC(=O)O)CCN(CC(=O)O)CCN(CC(=O)O)CC2)NC(=O)[C@H](CCCCNC(=O)CNC(=O)C(C)N2CCN(CC(=O)O)CCN(CC(=O)O)CCN(CC(=O)O)CC2)NC(=O)CNC(=O)C(C)N2CCN(CC(=O)O)CCN(CC(=O)O)CCN(CC(=O)O)CC2)CCNC(=O)[C@H](CCCCNC(=O)[C@H](CCCCNC(=O)CNC(=O)C(C)N2CCN(CC(=O)O)CCN(CC(=O)O)CCN(CC(=O)O)CC2)NC(=O)CNC(=O)C(C)N2CCN(CC(=O)O)CCN(CC(=O)O)CCN(CC(=O)O)CC2)NC(=O)[C@H](CCCCNC(=O)CNC(=O)C(C)N2CCN(CC(=O)O)CCN(CC(=O)O)CCN(CC(=O)O)CC2)NC(=O)CNC(=O)C(C)N2CCN(CC(=O)O)CCN(CC(=O)O)CCN(CC(=O)O)CC2)cc(C(=O)N(CCNC(=O)[C@H](CCCCNC(=O)[C@H](CCCCNC(=O)CNC(=O)C(C)N2CCN(CC(=O)O)CCN(CC(=O)O)CCN(CC(=O)O)CC2)NC(=O)CNC(=O)C(C)N2CCN(CC(=O)O)CCN(CC(=O)O)CCN(CC(=O)O)CC2)NC(=O)[C@H](CCCCNC(=O)CNC(=O)C(C)N2CCN(CC(=O)O)CCN(CC(=O)O)CCN(CC(=O)O)CC2)NC(=O)CNC(=O)C(C)N2CCN(CC(=O)O)CCN(CC(=O)O)CCN(CC(=O)O)CC2)CCNC(=O)[C@H](CCCCNC(=O)[C@H](CCCCNC(=O)CNC(=O)C(C)N2CCN(CC(=O)O)CCN(CC(=O)O)CCN(CC(=O)O)CC2)NC(=O)CNC(=O)C(C)N2CCN(CC(=O)O)CCN(CC(=O)O)CCN(CC(=O)O)CC2)NC(=O)[C@H](CCCCNC(=O)CNC(=O)C(C)N2CCN(CC(=O)O)CCN(CC(=O)O)CCN(CC(=O)O)CC2)NC(=O)CNC(=O)C(C)N2CCN(CC(=O)O)CCN(CC(=O)O)CCN(CC(=O)O)CC2)c1)N1CCN(CC(=O)O)CCN(CC(=O)O)CCN(CC(=O)O)CC1 (stereo partly drawn) [Example No. 1 from EP 0 836 485] | 75.0 | 39.2 | 25.0 | 6.9 | 4.0 | 1.5 | 1.0 | 0.9 | 0.7 | 0.4 | 0.4 | 0.0 | – | – | – | – | – | –
Octa-Gd complex amide from the Gd complex of 10-(4-carboxy-1-methyl-2-oxo-3-azabutyl)-1,4,7,10-tetraazacyclododecane-1,4,7-triacetic acid with dendritic octaamine 4d [Example 4e] | 65.9 | 44.2 | 30.0 | 17.5 | 13.5 | 8.3 | 4.5 | 2.7 | 1.6 | 0.3 | 0.0 | 0.0 | 3.3 | 42.0 | 0.20 | – | – | –
albumin-GdDTPA | – | – | – | – | – | – | – | – | – | – | – | – | – | – | – | ~30 % of the dose | 20 % of the dose | –
polylysine-GdDTPA | – | – | – | – | – | – | – | – | – | – | – | – | – | – | – | – | – | excreted unchanged by glomerular filtration via the kidney
